Experimental findings from patent US20220202899A1, “COMPOSITION FOR PREVENTION OR TREATMENT OF HAIR LOSS INCLUDING HAPLN1” (HAPLNSCIENCE INC., priority 2019, published 2022) are described below.

The subject of assay [1] is TβRII. Nature of the assay: TβRII protein in human hair germinal matrix cells deficient in endogenous HA (4-MU). The format is cell-based. Particulars: 4-MU-treated cells; HAPLN1 25 ng/mL; TGF-β2 2 ng/mL. On the procedure: 4-MU (4-methylumbelliferone) is an inhibitor of HA-producing hyaluronan synthase 2 (HAS2), which produces HA. In order to confirm the effect of HA produced in cells, HA production in cells was inhibited using 4-MU.
The human hair germinal matrix cells, in which the endogenous HA was inhibited by treating 4-MU, were dispensed into a poly-D-lysine 6-well plate at a concentration of 5.0×10^4 per well and cultured for 24 hours. After 24 hours, the medium was removed and replaced with a new serum-free medium. HAPLN1 was treated with 25 ng/mL, and after 1 hour, TGF-β2 (2 ng/mL) was treated. After 23 hours, cells were collected, a lysis buffer (25 mM Tris-HCl, 1 mM EDTA, 0.1% Triton-X100, phosphatase inhibitor, and protease inhibitor) was added, and all the cells were broken through sonication. HAS2 and TβRII in the sample were measured using Western blotting. The optical density of each of HAS2 and TβRII was compared to that of GAPDH using a densitometer.

Assay [2] relates to human hair germinal matrix cells. The assay can be described thus: Hair germinal matrix cell proliferating effect, CCK-8 (Example 13). The format is cell-based. Particulars: 25 ng/ml. The method, then: In the same manner as described above, HAPLN1 (25 ng/ml), CX3CL1 (25 ng/ml), CDON (25 ng/ml) or minoxidil (10 μM), and human recombinant TGF-β2 were diluted to a final concentration of 2 ng/ml, and the medium of the group containing TGF-β2 was replaced by 200 μl. To reduce an experimental variation, 3 wells per group were treated (triplication).
After incubation for 23 hours, the plate was removed from the incubator, and 20 μl of CCK-8 (WST-8) solution was added to the plate containing the medium and the reagent per 200 μl of the medium for the reaction to be carried out at 37° C. for 1 hour.
Human hair germinal matrix cells were released in a poly-D-lysine-coated flask using a mesenchymal stem cell medium (MSCM), and cultured in a 5% CO2 incubator at 37° C. When the cells were about 90% full, the cells were detached with a 0.05% Trypsin/EDTA solution, and then only the cells were recovered by centrifugation at 1000 rpm for 3 minutes. The recovered cells were dispensed into 96-well poly-D-lysine coated plates (BD bioscience) at 2.0×10^3 per well and cultured for 24 hours, and the final concentrations of HAPLN1, CX3CL1 and CDON were diluted to 25 ng/ml in a serum-free medium. The subsequent process was performed in the same manner as the experiment for the dermal papilla cells to measure the absorbance, and the results are shown in FIG. 22.

B1: hyaluronan and proteoglycan link protein 1 (protein, UniProt P10915 16-354, looked up)
Hyaluronan and proteoglycan …: DHLSDNYTLDHDRAIHIQAENGPHLLVEAEQAKVFSHRGGNVTLPCKFYRDPTAFGSGIHKIRIKWTKLTSDYLKEVDVFVSMGYHKKTYGGYQGRVFLKGGSDSDASLVITDLTLEDYGRYKCEVIEGLEDDTVVVALDLQGVVFPYFPRLGRYNLNFHEAQQACLDQDAVIASFDQLYDAWRGGLDWCNAGWLSDGSVQYPITKPREPCGGQNTVPGVRNYGFWDKDKSRYDVFCFTSNFNGRFYYLIHPTKLTYDEAVQACLNDGAQIAKVGQIFAAWKILGYDRCDAGWLADGSVRYPISRPRRRCSPTEAAVRFVGFPDKKHKLYGVYCFRAYN
notes: extracellular matrix protein found in cartilage; stabilizes aggregates of hyaluronic acid and proteoglycans
On to B1, for which the TβRII level entry in assay [1] was “recovered”. In addition, the “hair germinal matrix cell proliferation (absorbance at 450 nm)” value is “significant hair germinal matrix cell proliferating activity” in assay [2] (absence of TGF-β2) and “particularly superior hair germinal matrix cell proliferating activity” in assay [2] (presence of TGF-β2 (2 ng/ml)).
